Results as given in the supplement of paper PMC12042874.
± gives the uncertainty stated by the source.

experiment: amyloid nucleation score (Sup35N fusion, yeast selection) (log enrichment); library NNK2; higher = more nucleation; inactive = no reads after selection
Method in brief: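 Random libraries were run with three technical output replicates. In each, psi-negative yeast expressing Sup35N fused to peptides of 20 random codons were induced 24 hours with 100 μM copper sulfate and grown 7 days at 30°C on medium lacking adenine and uracil, and input and output plasmid inserts were Illumina-sequenced. The nucleation score is the DiMSum log enrichment of output over input reads, centred on the mode score of non-aggregating sequences, and sequences under 100 input reads were excluded.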

| Substance | amyloid nucleation score |
| --- | --- |
| QKTWEIANCFAELEKKIRQG | 2.4 ± 0.069 |
| RRISSKECLYRWGALWYIEI | 0.086 ± 0.61 |
| YLVGRYETTVSTKMNKMRCW | -0.175 ± 0.53 |
| HFCVLLLSFKNKILNYAFMH | -0.393 ± 1.1 |
| FIFKGNQWKVFVFL | 2.83 ± 0.068 |
| PTRCRVSYKRLRCSQLSLQL | -0.012 ± 0.79 |
| CDGAPSRLGRGLWGWSIMYG | 0.921 ± 0.51 |
| AFFACRNASSHTLWMLG | 5.91 ± 0.07 |
| QYQKIIWISCSIPMQMTISA | -0.097 ± 1.1 |
| SSLGIRNCVGTSYVMSPIIV | 0.178 ± 0.53 |
| YIIGSNEFSEHETDLNGYQT | -0.938 ± 0.62 |
| GSWLFREVMPA | -0.51 ± 0.44 |
| KFFMDYNGILDFWFRTREKD | -0.375 ± 0.74 |
| FSSSFVVWALYPVTFHLTRS | 0.112 ± 0.4 |
| HIMIFWYPVLTIKVQYDVGV | inactive |
| TITHLSNACTYMVDIRSFTF | 5.38 ± 0.068 |
| SSYKKYSVVN | -1.59 ± 0.48 |
| FMQGPFNYTRMLSL | -0.808 ± 1.1 |
| AHHCVGYCSHIFQDPRGRVM | 0.22 ± 0.44 |
| AHLAKSKVGLFCHNVMFEVP | -0.381 ± 1.1 |
| PGCHWISASCGDVLDKGNTG | 0.501 ± 0.62 |
| VNSEPDTLEGNENWYMGTRC | -0.125 ± 0.49 |
| SSTHVPLRVFHGEIMWQQIL | -0.291 ± 1.1 |
| ALPTWWVDKNLLSCLYSELS | -0.104 ± 0.62 |
| WSKQKVAT | 0.814 ± 0.21 |

| Substance | amyloid nucleation score |
| --- | --- |
| ISGVVFSTTRLLQFDGCRVG | 1.31 ± 0.52 |
| RRWTHKEPIKASLVRRFLRV | inactive |
| VRSYNVKYCSRRNLICGDG | -0.019 ± 0.41 |
| QFVSDALVWGGITSMGWLMR | 0.756 ± 0.4 |
| LLADAVMWFTMGSEDHDCY | -0.531 ± 0.44 |
| FRMLNRFLWFKVKMGYMHYG | -0.618 ± 0.42 |
| SGQRQLCVWCVCVAGGRIKL | 6.54 ± 0.076 |
| NNLGKEWKNIWGECLRRVAP | 4.48 ± 0.079 |
| PNRKSYLAYNMDSPT | -0.32 ± 0.24 |
| AEQRWTVRIVLSYYVSKINI | 0.316 ± 0.65 |
| IHSNEDFVRSESGVLDAYSV | -0.627 ± 0.42 |
| VPWSLGLCSIFRSFK | 2.38 ± 0.16 |
| VESMILSRYLHHILRGNSLC | -1.15 ± 1.1 |
| VCSMEGYEAVYSRRRELLWS | 0.08 ± 0.36 |
| KHCMCYLLWNI | -0.422 ± 1.1 |
| MCGFFVIIMRC | -0.652 ± 0.74 |
| SDLAWGERHLLEGLLVRPTT | 0.508 ± 0.29 |
| SNDDIEIAKRSHMY | 0.196 ± 0.54 |
| HHLLPWGWRPVYGSRLRCTL | 4.23 ± 0.049 |
| FRYFDWCIFYSYLLVCY | -1.96 ± 1.1 |
| NRGWSFKLQWHYSLSYTS | 4 ± 0.084 |
| TYVLSGEGEIKA | 1.54 ± 0.33 |
| WYVYSESRIS | -0.267 ± 0.42 |
| LYWSFYNYWATHVGFWHKKA | -1.87 ± 0.64 |
| PFCCLWFGLMHSSGVFRFMG | inactive |

| Substance | amyloid nucleation score |
| --- | --- |
| ISDLFYANLLVIASNMVT | -1.46 ± 0.78 |
| PDDLYCNPEGSLYQSIW | inactive |
| FNYDSLVSTRAYPFWTVTVF | 1.52 ± 0.43 |
| LYIHVDWLAWKTHVRQTKVT | -0.455 ± 1.1 |
| YRYKRLSRRV | -1.09 ± 0.78 |
| LLVRTYKLMMFHSLGIG | -0.583 ± 1 |
| IGISLSSRPCYTFFSRLRWI | -0.387 ± 0.38 |
| FCILSWGLSVRYSRVPLNYK | 1.14 ± 0.18 |
| RMNYTTEIGHSGFSGNIWTG | -0.45 ± 0.78 |
| VDREKKEKTLVDGTQMVTCL | 1.12 ± 0.32 |
| YLYKLFGDDFGDWFLICFFR | inactive |
| CLQCYYRMSDNCFHSTA | 5.114 ± 0.04 |
| RSLLRFQ | 0.874 ± 0.14 |
| KVINFGCTTFDYGYATYFGQ | 6.66 ± 0.055 |
| FKRSTCNLR | -0.479 ± 0.29 |
| ATFFILRTYGVWVTSIKRRS | 0.157 ± 1 |
| SSRDKILTSMKIWMLRFLAN | 0.37 ± 0.51 |
| SLLVDALR | 0.513 ± 0.39 |
| QRVMHTYYVS | 0.073 ± 0.24 |
| CSCSVIGWFLHPVATVINLT | 2.73 ± 0.07 |
| YENFLLLL | -0.676 ± 0.26 |
| MKGNSSGVA | 1.25 ± 0.31 |
| IYCHPLRYVLFIVSYRVSSA | 0.259 ± 0.56 |
| VAVISDWGWQNWMSVVGVGH | inactive |
| YRHDVWLEE | 0.016 ± 0.23 |

| Substance | amyloid nucleation score |
| --- | --- |
| NLWFSHDITYHYTYFDRSRA | 4.52 ± 0.087 |
| HMHQPSSPHLLLCV | -0.47 ± 0.46 |
| YKMILGCVVRVGYRILNCIR | 0.295 ± 0.5 |
| HCHAVDSLNVHFKEFIHRMN | inactive |
| HETLQASIFVLLIHTKYHES | -1.58 ± 1 |
| FWGGKNYI | -1.5 ± 0.75 |
| SCYRIWIMILVIGFSLNRRL | -0.208 ± 0.2 |
| VLGGLCSVFGDDGTAYYSSS | 0.417 ± 0.36 |
| QAWYRLVCIASYLFYEGFNV | 0.193 ± 0.13 |
| NFKYHCRYWFFVFAKFKFHL | -1.42 ± 0.75 |
| RCFNLWSNSVLFNCSVCSAE | 7.414 ± 0.065 |
| DRLLDLIVWGVFWQLGMRFL | inactive |
| DRHRFIHFYAQGERKLSRTM | -0.358 ± 0.79 |
| MSGSDNLILYSSV | -0.212 ± 0.45 |
| FMFPGRRPFPIAMWELRFFS | -0.427 ± 1.1 |
| GVPIGKKYRTSVCENMEGSW | -0.627 ± 0.31 |
| WCSSKSLADSGRVMGANVYI | -1.02 ± 0.78 |
| TRGCFAVSSKYMLSYVGLNR | -0.021 ± 0.21 |
| RVVRGWIAYFW | 0.374 ± 0.44 |
| TPVYPRRSIVLICSISMLRK | 4.12 ± 0.064 |
| QLNVIDIYTSGWISFP | -1.06 ± 0.26 |
| YCYARD | -0.172 ± 1.1 |
| YGILCAKLTAVCL | 1.44 ± 0.36 |
| GQNRKLLDLIYRMLGSLLWH | 0.309 ± 0.8 |
| VHQYDSVSAVHADCMG | -1.27 ± 0.53 |

| Substance | amyloid nucleation score |
| --- | --- |
| DATNQRYVPRLFHKMSITGS | 0.848 ± 0.57 |
| VKQYYGSESNNGITFILRIA | 0.177 ± 0.38 |
| DYGLVCY | 0.277 ± 0.22 |
| TNISMLNDVGEGCFGERSLV | -0.291 ± 0.54 |
| RGFRIVLINRCVILRSV | 0.198 ± 0.26 |
| EKTFRFADYLMCPASSRSSV | -0.082 ± 0.4 |
| GRVKTYTVGFVNIIHFSWLG | 3.57 ± 0.053 |
| QEAALG | 1.27 ± 0.35 |
| YRVVTSTVKMRLWSRGVYDH | 3.07 ± 0.088 |
| MSFNQLIMFETRSSTPYRWR | 5.71 ± 0.078 |
| CCAQWSNFACSV | 5.392 ± 0.038 |
| CPDHNGRFGSWVGEYHVGLS | 1.43 ± 0.17 |
| ILSAFV | -0.16 ± 0.36 |
| LNVLKNT | 0.187 ± 0.24 |
| LITRGCCL | -0.33 ± 0.76 |
| NVSGMFISMLIFRIMHHGQC | 5.11 ± 0.055 |
| CWNDSRMCR | -0.387 ± 0.26 |
| QIIRPCVRRDKTGFIALVMG | 1.27 ± 0.49 |
| LKNVLTCESVINQLR | -0.464 ± 0.39 |
| AFTCYVETSIIMPNMS | -0.734 ± 0.76 |
| RFRHNKWYCLLRLAG | 0.956 ± 0.33 |
| GVKFQAAEAGPPGTYGTLGS | -0.031 ± 0.63 |
| LSTLLFRIYGLPS | -2.12 ± 0.49 |
| RCGSDLCDTFWVTLRGYGEV | 0.595 ± 0.43 |
| YSYFSYVLRFMCSYLLALTQ | inactive |

| Substance | amyloid nucleation score |
| --- | --- |
| HFMSYAAWAREWSVEPQ | 0.967 ± 0.66 |
| TRNSFRSSLWVLRGGCV | -0.523 ± 0.37 |
| KSFGCIRKCEDCYIW | 0.74 ± 0.51 |
| VPSTIWMTR | 0.585 ± 0.38 |
| CCDNY | -0.778 ± 0.54 |
| ARFFGFYYPTTGIPGNYGFC | -0.315 ± 1 |
| FSSSI | inactive |
| SMFSRRNIQKSCFCYWNRLC | -0.418 ± 1.1 |
| DLWGVI | 8.81 ± 0.026 |
| TLGVSRNLALSTEARTLRPY | -0.041 ± 0.42 |
| HHRIFGMIDELSKVTNIHFG | -0.434 ± 0.74 |
| VYMGEELVLVISVKDR | inactive |
| EFVLKSLTNLTEIKYAVSLE | 2.09 ± 0.099 |
| RSKSCSVVVRL | 0.813 ± 0.43 |
| NQSESFHGLDHFTRNHGGCR | inactive |
| LSRRMDMRSSTSALHVSIQL | 6.413 ± 0.064 |
| MVYGLDFIGASL | -0.016 ± 0.5 |
| NSWFLYRCKFVLRHSYVN | inactive |
| MNFESNFRNTKCEIFIVIYN | 4.62 ± 0.11 |
| FFTGFDLVPVSYI | inactive |
| LCIFYNWRCV | 6.76 ± 0.024 |
| GSYVTAISAHFVGKLCASRI | 0.343 ± 0.8 |
| AWSLFYRLLPPWNE | -0.656 ± 1.1 |
| IDYVGYMKWMMV | 0.016 ± 0.38 |
| QIQVYMNALLTRLSSIILIF | -0.93 ± 0.55 |

| Substance | amyloid nucleation score |
| --- | --- |
| DWCYYGG | inactive |
| KSVSVGQVRTCPYSFISPVL | 0.247 ± 1 |
| SFSHGSDAIGNVYCDNIVYK | inactive |
| CAEAFVMGFSSKGGVINRAL | 2.1 ± 0.12 |
| WLWNNG | 0.485 ± 0.74 |
| WWKYLVICLWARMALKGFSL | inactive |
| YFSYPC | -1.82 ± 1 |
| GICHWGLLFTACFIPWRMRG | 1.37 ± 0.32 |
| LRTTGLHFSSRLMVFTLNWI | -0.237 ± 0.33 |
| DYPSKKGVVPPRLGISDKNV | 2.86 ± 0.049 |
| NKRELNIVV | 0.701 ± 0.43 |
| EHVFMSAHFLLNSQRKKN | -1.9 ± 0.75 |
| FSFLHFVERLTGHLIYFSRF | inactive |
| CHVYYVQFVLAD | -0.604 ± 0.76 |
| QLRRFERMLSLVM | 1.31 ± 0.3 |
| IIIGFWVCWNSIASWSIVGR | -1.78 ± 1.1 |
| LPLILV | 0.356 ± 0.8 |
| HYPQYCFFARKIFITCGYME | 5.22 ± 0.061 |
| PISTSFYRMSILEYGSR | -0.529 ± 0.64 |
| PTSDALLKCSAPFCSVRPVP | 0.138 ± 0.76 |
| DQLWRIRYWLLTDVGRNRIF | 0.343 ± 0.38 |
